Source: patent publication US12365710B2, “HMGB1 protein derivatives for the removal of biofilms” (RESEARCH INSTITUTE AT NATIONWIDE CHILDREN'S HOSPITAL, priority 2018, dated 2025)
Like-named read-outs stand apart in the source and are kept apart here.

Columns and labels:
[1] = tested on: B. cenocepacia; type: in vivo, C57BL/6 mice; details: 0.2 nmol administered 24 h after challenge, collected 48 h after treatment
Method: (§1) FIGS. 7A-7G: HMGB1 promotes clearance of S. cenocepaca from mice without inducing sepsis. C57BL/6 mice were challenged with 10^7 CFU intratracheally, and either simultaneously (prevention) or 24 h later (treatment) received 0.2 nmol of HMGB1 valiant. (FIG. 7A) Aggregates of B. cenocepacia were visible by fluorescence microscopy in lung sections probed with an α-B. cenocepacia antibody. For prevention, (FIG. 7B) bronchoalveolar lavage (BAL) collected 18 h post-inoculation (hpi) was analyzed for CFU. (FIG. 7C) Neutrophils in BAL were quantified by differential cell counting. (FIG. 7D) Lung tissue collected 72hpi was fixed, embedded, sectioned, and stained with hematoxylin & eosin (10× magnification). For treatment, 72hpi (FIG. 7E) CFUs were quantified in BAL. (FIG. 7F) Neutrophil recruitment was analyzed 24 h after intraperitoneal (i.p.) administration of HMGB1 valiants by fluorescence-activated cell sorting of peritoneal lavage stained with α-CD45, α-CD11b, and αLy-6G. (FIG. 7G) Serum TNF-α. was measured by ELISA in mice injected i.p. with 0.2 nmol HMGB1 valiants, 5 mg/kg LPS, or both. LoD: limit of detection. Bars represent SD. *P<0.05.
rHMGB1 and mHMGB1 disrupt biofilms in two distinct animal models but the inflammatory response is strongly attenuated with Cys to Ser mutations: Applicant tested both rHMGB1 and mHMGB1 for their ability to treat middle ear infection and the corresponding inflammatory response using a well-established chinchilla model of experimental OM due to NTHI49,67,68 wherein adhered mucosal biofilm formation plays a key role in pathogenesis (FIG. 8A). […] On day 6, animals were sacrificed and middle ears were imaged and blindly scored for biofilm that remained (FIG. 8A) and mucosal inflammation (FIG. 8B). […] Next, Applicant determined whether rHMGB1 or mHMGB1 could prevent or aggregate biofilm development. […] Bc formed aggregates that were readily visible in lung sections probed with Bc antibody (FIG. 7A). […] Next, Applicant assessed the ability of rHMGB1 and mHMGB1 to treat established Bc infection. […]

[2] = tested on: B. cenocepacia; type: in vivo, C57BL/6 mice; details: for Bc CFU in lung tissue / Bc CFU in BAL: 10^7 CFU Bc i.t. with 0.2 nmol protein simultaneously, 18 h; for Bc CFU in lung tissue: data not shown, P<0.05; for Bc CFU in BAL: vs control mice; for aggregate biofilm formation / development in vivo: lung model, 0.2 nmol given simultaneously with Bc; for lung damage, H&E histology: mouse, in vivo
Method: as §1
Applicant's novel approach of using a non-antimicrobial agent like HMGB1 protein and its variants for the treatment of biofilm related infections epitomizes a radical departure from classic therapeutic concepts. Full length HMGB1 and the smallest variant tested to date with the greatest disruption activity found in vitro, B Box and the modified B Box (mB Box) where the cysteine at position 106 was mutated to a serine to abrogate its inflammatory inducing ability, were tested in vivo for biofilm disruption and inflammatory activity (FIG. 7).
rHMGB1 and mHMGB1 disrupt biofilms in two distinct animal models but the inflammatory response is strongly attenuated with Cys to Ser mutations: Applicant tested both rHMGB1 and mHMGB1 for their ability to treat middle ear infection and the corresponding inflammatory response using a well-established chinchilla model of experimental OM due to NTHI49,67,68 wherein adhered mucosal biofilm formation plays a key role in pathogenesis (FIG. 8A). The middle ear of mixed sex, outbred adult chinchillas were inoculated with 1000 CFU NTHI by transbullar injection. At days 4 and 5 post-challenge, at which time there is abundant biofilm present in the middle ear space, […] of rHMGB1, mHMGB1, or diluent was delivered directly to the middle ear (2 total treatments). On day 6, animals were sacrificed and middle ears were imaged and blindly scored for biofilm that remained (FIG. 8A) and mucosal inflammation (FIG. 8B). […] In contrast, MEFs from mHMGB1-treated animals had increased anti-inflammatory cytokines [IL-4 (2-fold), IL-10 (5-fold)] […] Next, Applicant determined whether rHMGB1 or mHMGB1 could prevent or […] biofilm development. For prevention, adult C57BL/6 mice were challenged with 10^7 CFU of Bc intratracheally (i.t.), and 0.2 nmol of rHMGB1 or mHMGB1 was added simultaneously. After 18 h, mice were euthanized, and bronchoalveolar lavage (BAL) and lungs were collected. Bc formed aggregates that were readily visible in lung sections probed with Bc antibody (FIG. 7A). Tissue was homogenized and CFUs were enumerated. […] This same animal model was then used to investigate lung damage 72 h post-challenge with Bc and administration of rHMGB1 or mHMGB1. Lungs were collected and tissue was fixed, embedded in paraffin, sectioned, and stained with Haematoxylin and Eosin (H&E). […] Next, Applicant assessed the ability of rHMGB1 and mHMGB1 to treat established Bc infection. Mice were challenged as above and 0.2 nmol rHMGB1 or mHMGB1 was administered 24 h later. 48 h after treatment, mice were euthanized and BAL and lungs were collected and processed as above. […] To further validate the reduced pro-inflammatory activity of mHMGB1, Applicant used an in vivo model of chemotaxis to determine relative ability to recruit neutrophils70,71. […]

Molecule | Bc CFU in lungs / BAL [1] | Bc CFU in lungs / BAL ([1]; listed as HMGB1) | Bc CFU in lung tissue [2] | Bc CFU in BAL [2] | aggregate biofilm formation / development in vivo [2] | lung damage, H&E histology [2] | aggregate biofilm formation / development in vivo ([2]; listed as B Box) | aggregate biofilm formation / development in vivo ([2]; listed as B box) | inflammatory response in the lung model ([2]; 0.2 nmol)
rHMGB1: tagless human recombinant full length HMGB1 (1-215) expressed in E. coli | significantly fewer Bc in their lungs | significantly decreased | significantly fewer | significantly fewer Bc in BAL | prevent biofilm formation in vivo | severe inflammation and an increased neutrophil response |  |  | 
B-linker Box: HMGB1 B Box with N- and C-terminal linker (80-179; 80 to 176 in b258), 97 amino acid (protein, UniProt P09429 80-179, looked up, fragment) PPKGETKKKFKDPNAPKRPPSAFFLFCSEYRPKIKGEHPGLSIGDVAKKLGEMWNNTAADDKQPYEKKAAKLKEKYEKDIAAYRAKGKPDAAKKGVVKAE |  |  |  | decreased CFU in BAL |  |  | inhibit biofilm development in vivo | prevent biofilm formation in vivo | 
mHMGB1: engineered C45S variant of full length rHMGB1 that mimics the reduced form of HMGB1 (protein, UniProt P09429 1-215, looked up, variant C45S, full-length, engineered C45S variant of full length rHMGB1 that mimics the reduced form of HMGB1) MGKGDPKKPRGKMSSYAFFVQTCREEHKKKHPDASVNFSEFSKKSSERWKTMSAKEKGKFEDMAKADKARYEREMKTYIPPKGETKKKFKDPNAPKRPPSAFFLFCSEYRPKIKGEHPGLSIGDVAKKLGEMWNNTAADDKQPYEKKAAKLKEKYEKDIAAYRAKGKPDAAKKGVVKAEKSKKKKEEEEDEEDEEDEEEEEDEEDEDEEEDDDDE | significantly fewer Bc in their lungs |  | significantly fewer | significantly fewer Bc in BAL | inhibited aggregate biofilm formation | more closely resembled uninfected mouse lungs |  |  | did not enhance the inflammatory response
